{"source": "patent US20060057614A1", "about": "(priority 2004, published 2006)", "target": "sodium Nav1.2 voltage-gated channel (expressed in Xenopus oocytes)", "assay": "cell-based or functional assay", "data": [{"substance": "tethered µ-o-conotoxin MrVIA", "values": [{"measurement": "current flux through the channel, whole cell currents in Xenopus oocytes", "value": 90, "unit": "%"}]}]}
